Data from PMC11210195.

Tests used:
[1] = target: TRIM21 PRYSPRY domain (human) (UniProt P19474); experiment: SPR; Biacore T200, C1 chip, 25 °C, HBS-EP+; biotinylated PRYSPRY domain captured via monovalent streptavidin at low density (about 3 RU); (antibody) Fc constructs injected in five two-fold dilutions from 200 nM; global monophasic fit, affinity mode
[2] = target: anti-AAV2 capsid antibody A20 WT (human); experiment: SPR; A20 antibody variants and TRIM21-CC-PS; orientation not told in the text (Supplementary Figure S8); apparent (avidity) constant
Chain of anti-AAV2 capsid antibody A20 WT (human) (heavy, as listed by the source, chain 1 of 2): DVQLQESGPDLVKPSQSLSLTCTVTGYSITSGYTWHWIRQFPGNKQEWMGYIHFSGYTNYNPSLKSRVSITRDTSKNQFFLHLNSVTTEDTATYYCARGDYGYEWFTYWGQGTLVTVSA
Chain of anti-AAV2 capsid antibody A20 WT (human) (light, as listed by the source, chain 2 of 2): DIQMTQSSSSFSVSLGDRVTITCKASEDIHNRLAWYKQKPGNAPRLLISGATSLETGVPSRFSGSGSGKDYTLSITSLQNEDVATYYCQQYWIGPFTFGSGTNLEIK

mAb1 WT-AAA (human) = experiment: mass photometry; TRIM21-CC-PS incubated 10 min with antibody Fc variants at different molar ratios, low nM; PBS pH 7.4, room temperature
mAb1 HH (human) = experiment: SPR; antibody Fc variants captured via anti-human Fab-kappa ligand at low density (approx. 8-10 RU); TRIM21-CC-PS injected, two-fold series from 100 nM, 180 s association, 600 s dissociation; 25°C, HBS-EP+; 1:1 fit; apparent (avidity) constants
mAb1 YTE (human) = experiment: as above
[3] = target: anti-AAV2 capsid antibody A20 WT (bivalent, human IgG1 Fc WT) (human); experiment: SPR; Biacore T200, C1 chip, 25 °C, HBS-EP+; (antibody) Fc variants captured at low density (about 8-10 RU) via anti-human Fab-kappa nanobody or anti-PGLALA F(ab')2; TRIM21-CC-PS injected 180 s in two-fold dilutions from 100, 400, 500 or 1000 nM; global 1:1 Langmuir fit; avidity (apparent) mode for symmetrical, affinity mode for asymmetrical Fc variants
Chain of anti-AAV2 capsid antibody A20 WT (bivalent, human IgG1 Fc WT) (human) (heavy, as listed by the source, chain 1 of 2): as the sequence (heavy, as listed by the source, chain 1 of 2) above
Chain of anti-AAV2 capsid antibody A20 WT (bivalent, human IgG1 Fc WT) (human) (light, as listed by the source, chain 2 of 2): as the sequence (light, as listed by the source, chain 2 of 2) above

[4] = target: mAb1 HH (human IgG1, T307H, N434H) (human); experiment: as above
[5] = target: mAb1 HH-AAA (asymmetrical human IgG1, one Fc heavy chain HH, the other AAA) (human); experiment: as above
[6] = target: mAb1 WT-AAA (asymmetrical human IgG1, one Fc heavy chain H310A, H433A, Y436A) (human); experiment: as above
[7] = target: mAb1 YTE (human IgG1, M252Y, S254T, T256E) (human); experiment: as above
[8] = target: mAb1 YTE-AAA (asymmetrical human IgG1, one Fc heavy chain YTE, the other AAA) (human); experiment: as above

Chain of TRIM21-coiled-coil-PRYSPRY (TRIM21-CC-PS) (P19474 128-475): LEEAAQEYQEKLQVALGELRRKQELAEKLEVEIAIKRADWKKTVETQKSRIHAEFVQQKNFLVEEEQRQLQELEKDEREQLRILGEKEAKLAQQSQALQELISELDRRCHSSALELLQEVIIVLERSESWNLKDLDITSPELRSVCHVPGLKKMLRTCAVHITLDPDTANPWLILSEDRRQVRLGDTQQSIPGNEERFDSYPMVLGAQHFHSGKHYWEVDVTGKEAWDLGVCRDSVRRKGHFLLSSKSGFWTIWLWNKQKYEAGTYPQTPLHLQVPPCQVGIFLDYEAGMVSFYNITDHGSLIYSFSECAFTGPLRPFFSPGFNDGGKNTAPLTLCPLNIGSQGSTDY
Chain of TRIM21-coiled-coil-PRYSPRY (P19474 128-475): as above
Chain of TRIM21 PRYSPRY domain (human) (P19474 277-475): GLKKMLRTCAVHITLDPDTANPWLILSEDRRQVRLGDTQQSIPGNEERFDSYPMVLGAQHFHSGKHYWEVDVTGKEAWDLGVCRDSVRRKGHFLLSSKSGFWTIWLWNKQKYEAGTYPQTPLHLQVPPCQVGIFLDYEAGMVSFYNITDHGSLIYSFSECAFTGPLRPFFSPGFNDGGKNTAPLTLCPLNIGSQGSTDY

Briakinumab (antibody)
Kd [1]: 16.6 nM | koff [1]: 0.102 s⁻¹ | kon [1]: 6.14e+06 M⁻¹ s⁻¹

Fc WT (Fc-only variant, human IgG1 core hinge-CH2-CH3, wild type) (domain or fragment)
Kd [1]: 25.9 nM | koff [1]: 0.132 s⁻¹ | kon [1]: 5.09e+06 M⁻¹ s⁻¹

TRIM21-coiled-coil-PRYSPRY (TRIM21-CC-PS) (from UniProt P19474-1 128-475) (domain or fragment)
Kd [2]: 0.7 nM | percent complexed (mAb1 WT-AAA (human)): 2% | avidity enhancement (K (D,AFFINITY)/K (D,AVIDITY)) (mAb1 HH (human)): 72 fold | fold faster kinetic rates against YTE (mAb1 HH (human)): 5 fold | fold weaker against the WT avidity (mAb1 HH (human)): 2 fold | avidity enhancement (K (D,AFFINITY)/K (D,AVIDITY)) (mAb1 YTE (human)): 50 fold | fold weaker against the WT avidity (mAb1 YTE (human)): 2 fold

Ustekinumab (antibody)
Kd [1]: 22.7 nM | koff [1]: 0.0884 s⁻¹ | kon [1]: 3.89e+06 M⁻¹ s⁻¹

TRIM21-coiled-coil-PRYSPRY (from UniProt P19474-1 128-475) (domain or fragment)
koff [3]: 0.000983 s⁻¹ | kon [3]: 1.44e+06 M⁻¹ s⁻¹ | Kd [4]: 1.37 nM | koff [4]: 0.00651 s⁻¹ | kon [4]: 4.74e+06 M⁻¹ s⁻¹ | Kd [5]: 474 nM | koff [5]: 0.437 s⁻¹ | kon [5]: 921000 M⁻¹ s⁻¹ | Kd [6]: 116 nM | koff [6]: 0.129 s⁻¹ | kon [6]: 1.1e+06 M⁻¹ s⁻¹ | Kd [7]: 1.47 nM | koff [7]: 0.00127 s⁻¹ | kon [7]: 865000 M⁻¹ s⁻¹ | Kd [8]: 220 nM | koff [8]: 0.167 s⁻¹ | kon [8]: 758000 M⁻¹ s⁻¹
